# Results from the nanobody polyreactivity screen of Harvey et al. (2022).
# Experiment: yeast display, Sf9 membrane polyspecificity reagent, FACS + sequencing; frameworks hold sequencing errors
# Method in brief: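 Using colony PCR, genes from sorted yeast display clones were amplified, then sequenced on MiSeq at 2 × 250 and filtered by CDR length. The clones had been stained with 10% biotinylated, detergent-solubilized Sf9 membrane reagent for 1 hour at 4 °C and sorted by FACS into low and high (top ~1%) gates on anti-HA and streptavidin fluorescence. Polyreactivity labels come from the gate of origin.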
row,Sequence,polyreactivity (PSR sort gate)
1,QVQLVESGGGLVQAGGSLRLSCAASGRIFQYYVMGWYRKAPGKERELVAAITRRGTNTYYADSVKGRFTISRDNAMNTVYLQMNSLKPEDTAVYYCAAEAQTKWWDYYYWGQGTQVTVSS,high polyreactivity
2,QVKLVESGGGLVQAGGSLRLSCAASGITFYINAMGWYRQAPGKERELVAVIDSRGSSTFYADSVKGRFTISRDNAKNTVYLQMNSLKPEDTAVYYCAVEGYPGRYRDPGDLYYYWGQGTQVTLSS,low polyreactivity
3,QVQLVESGGGLVQAGGSLRLSCVASGRIFQSYAMGWYRQAPGKERELVARITGGSSTYYADSVKGRFTISRDNAKNTVYLQMNSLKPEDTAVYYCAARTRGPDRARYDYWGQGTQVTVSS,low polyreactivity
4,QVQLVESGGGLVQAGGSLRLSCAASGITFVKNAMGWYRQAPGKERELVARIRIGGSTSYADSVKGRFTISRDNAKNTVYLQMISLKPEDTAVYYCARYAGRLSYRYEYWGQGTQVTVSS,high polyreactivity
5,QVQLVESGGGLVQAGGSLRLICDASGSTFAYNDMGWYRQAPGKERELVAAITYSGGSTYYADSVKGRFTISRDNAKNTVSLQMNSLKPEDTAVYYCNAYTGYPYEYWGQGTQVTVSS,low polyreactivity
6,QVQLVESGGGLVQAGGSLRLSCAASGRTFYDYAMGWYRQAPGKERELVAGIRWSGGSTYYADSVKGRFTISRDNAKNTVFLQMNSLKPEDTAVYYCAADWFAGVAADVEYDYWGQGTQVTVSS,low polyreactivity
7,QVQLVESGGGLVQAGGSLRLSCAASGIIFRPYAMGWYRQAPGKEREMVAAITWSGTSTYYADSVKGRFTISRDNAKNTVYLQMNSLKPEDTAVYYCAATWSYGVSWYEYWGQGTQVTVSS,high polyreactivity
8,QVQLVESGGGLVQEGGSLRLSCAASESNFPRNAMGLYRKEPGKEREIVAAISSAGSTYYADSVKWRFTISRDNAKNTVYLQMNSLKQEDTAVYYCAARLYWPLIVVDLYGYDYWGQGNQVTVSS,low polyreactivity
9,QVQLVESGGGLVQAGGSLRLSCAASGRIFYRYAMGWYRQAPGKERELVAAINKSGGSTYYADSVKGRFTISRDNGKNTVSLQMKSLKPEDTAVYYCTAVYYWYKGDYWGQGTQVTVSS,high polyreactivity
10,QVQLVESGGGLVQAGGSLRLSCAASGSIFPSYAMGWYRQAPGKERELVAAISSSGGSTYYADSVKGRFTISRDNAKNTVYLQMNSLKPEDTAVYYCATRYRRWSTVVQDDYWGQGTQVTVSS,low polyreactivity
11,QVQLVESGGGLVQAGGSLRLSCAASGSIFRVYAMGWYRQAPGKERELVAAISWGRGTTYYADSVKGRFTISRDNAKNTVYLQMTSLKPEDTAVYYCAAGGVGAYDYWGQGTQVTVSS,high polyreactivity
12,QVQLVESGGGLVQAGGSLRLSCAASGRTFYGYAMGWYRQAPGKERELVAAISSDTGGTDDTYYADSVKGRFTISRDNAKNTVYLQMNSLKPEDTAVYYCAAETEQGIIVTGLAYDYWGQGTQVTVSS,low polyreactivity
13,QVQLVESGGGLVQAGGSLRLSCAASGRTFKRYAMGWYRQAPGNERELVAAIRRGGITNYADSVKGRFTISRDNAKNTVYLQMNSLKPEDTAVYYCAKDGVTYPYSYEYDYWGLGTQVTVSS,low polyreactivity
14,QVQLQESGGGVQAGGSLRLSCAASGSISAPILMVWYRQAPGKERELVAGIGGGANTYYADSVKGRFTVSRDNAKYTVYLQMNSLKPEDTAVYYCAAGDYYWTNFGYWGQGTQVTASS,high polyreactivity
15,QVQLVESGGGLVQAGGSLRLSCAASGLTFGGNAMGWYRQAPGKERELVAAISWSDDTTDYADSVKGRFTISRDNGKYTVYLQMNSLKPEDTAVYYCAARLPFEHVDYWGQGTQVTVSS,low polyreactivity
16,QVQLVESGGGLVQAGGSLRLSCAASGSTFWTYTMGWYRQAPGKERELVAVISSTGGDTYYADSVKGRFTISRDNAKNTVYLQMNSLKPEDTAVYYCAARIRRWYAGYGGYYWGQGTQVTVSS,high polyreactivity
17,QVQLVESGGGLVQAGGSLRLSCAASGSIFEVYAMGWYRQAPGKDRELVAAITSSDITYYADSVKGRFTISRDNAKNTVYLQMNSLKPEDRAVFYCNAEPPYRVKRSDYWGQGTQVTVSS,low polyreactivity
18,QVQLVESGGGLVQAGGSLRLSCAASGRTFTYYAMGWYRQAPGKERELVAAISNGGRTYYADSVKGRFTISRDNAKNTVYLQMNSLKPEDTAVYYSAAYLSPKGRGFGSWGQGTQVTVSS,high polyreactivity
19,QVQLVESGGGLVQAGGSLRLSCAASGRTFPIYAMGWYRQSPGKERELVAAITYSGGSTYYADSVKGRFTISRDNANNKVYLKMNSLKPEDTSVYYCAVDGTKPYWHQRYDYWGQGTQVTVSS,low polyreactivity
20,QVQLVESGGGLVQAGGSLRLSCAASGSIFGLYAMGWYRQAPGKERELVAAITDSTGSTSYADSVKGRFTISRDNAKNTVYLQMTSLKPEDTAVYYCAAGQGRWRHGFDYWGQGTQVTVSS,low polyreactivity
21,QVQLVESGGGLVQAGGSLRLSCAASGSIFASYVMGWYRQAPGKERELVASITLSGGSTYYADSVKGRFTISRDNAKNTVYLQMNSLKPEDTAVYYCAKRGTLWLQEDYYWGQGTQVTVSS,low polyreactivity

row,Sequence,polyreactivity (PSR sort gate)
1,QVQLVESGGGLVQAGGSLRLSCAASGRIFRYYAMGWYRQAPGKERELVAAISWSGSSTYYADSVKGRFTISRDNAKNTVFLQMNSLKPEDTAVYYCDALILSKSEYYWGQGTQVSVSS,high polyreactivity
2,QVQLVESGGGLVQAGGRLRLSCAASGSTFQFYAMGWYRQAPGKERELVAAITSSGSSTYYADSVKGRFTISRDNAKNTVYLQMNSLKPEDTAVYYCAARYYGYSVSYYYWGQGTQVTVSS,high polyreactivity
3,QVQLVESGGGLVQAGGSLRLSCAASGFTFRRYTMGWYRQARGKERELVAGITTSGGTYYADSVKGRFTISRDNAKNTVYLQMNSLKPEDTAVYYCAARIYYLYGMDYWGQGTQVTVSS,low polyreactivity
4,QVQLQESGGGLVQAGGSLRLSCAASGSIFHLHIMCWYSQAPGKERESVAAISYGTSTYFADSVKGRFTICRDNAKNTVYLQMNSPKPYDTAVYYCAALFLVSKHHHYWGEGTQVTVSS,low polyreactivity
5,QVQLVESGGGLVQAGGRLRLSCAASGTFRRNAMGWYRQAPGKERELVAAIRWSGGITYYADSVKGRFTISRDNAKNTVYLQMNSLKPEDTADYYCSGQRYYGFGKTYYYWGQGTQVTVSS,high polyreactivity
6,QVQLVESGGGLVQAGGSLRLSCADSGRIFVGNAMGWYRQAHGKERELVAAITSSGGSTYYADSVKGRFTISRDNAKNTVYLQMNSLKPEDTAVYYCAARVPYRLKAQPFSNRGYYWGQGTQVTVSS,high polyreactivity
7,QVQLVESGGGLVQAGGSLRLSFAASGGIFRLYAMGWYRQAPGKERELVAAINGGGSTNYADSVKGRFTISRDNAKNTVYLQMNSLKPEDTAVYYCNAVQYYRFQVYEYDYWGQGTQVTVSS,high polyreactivity
8,QVQIVESGGGLVQAGGSLRLSCAASGRTFNQYAMGWYRQAPVKERELVAAISASGGNTYYADSVKGRFTISRDNAKNNVYVQMNSLKQEDTEVYYCADKQSSSRYYGNDYWGQGTQVTVSS,high polyreactivity
9,QVQLVESGGGLVQAGGSLRLSCAASGGTFSSNAMGWYRQAPGKERELVAAITWSGGSTYYADSVKGRFTISRDNAKNTVYLQMNSLKPEDTAVYYCNARNQWRTVGKYDYWGQGTQVTVSS,low polyreactivity
10,QVQLVESGGGLVQAGGSLRLSCAASGFTCARYALGWYRQAPGQERELVASITWNGGRTYYAASVKGRFTISRDNAKNTVYLQMNSLKPEDTAVYYCAKDTRYTRYEYWGQGTQVTVSS,high polyreactivity
11,QVQLVESGGGLVQAGGSLRLSCAASGSTSRTYAMGWYRQAPAKERELVAASSSSGGRTYYADSVKGRFTISRDNAKNTVYLQMNSMKPEDTAVYYCNARTYSYRGYNYWGQGTQVTVSS,high polyreactivity
12,QVQLVESGGGLVQAGGSLRLSCAASGFTFGVYAMGWYRQAPGKERELVATISSSGSTNYADSVKGRFTISRDNAQNPVYLQMNSLKPEDTAVYYCAVYYLYRRRQYYYWGQGTQVTVSS,low polyreactivity
13,QVQLVESGGGLVQAGGSLRLSCADSGITFSRYAMGWYRQAPGKERELVAAITRRGGNTYYADSVKGRFTISRDIAKNTVYLQMNSLKPVDTAVYYCASGYTYYGGDYWGQGTQVTVSS,high polyreactivity
14,QVQLVESGGGLVQAGGSLRLSCAASGRIFEDYAMGWYRQAPGKERELVARISSGDSTNYADSVKGRFTISRDNAKNTVYLQMNSLKPEDTAVYYCNADRGDLYELRGSGYLDGYWGQGTQVTVSS,low polyreactivity
15,QVQLVESGGGLVQAGGSLRLSCAASGFIFIVYAMGWYRQAPGKERELVASITYSGGGTYYADSVKGRFTISRDNAKNTVYLQKNSLKPEDTAVYYCNADVSWSYSVYREYGMDYWGQGTQVTVSS,low polyreactivity
16,QVQLVESGGGLVQAGGSLRLSCDASGRIFRKNAMGWYRQAPGKERELVAAISGGGGSTYYADSVKGRFTISRDNAKNTVYLQMNSLKPEDTADYYCNAPILPGYWGQGTQVTVSS,high polyreactivity
17,QVQLVESGGGLVQAGGSLRLSCAASGRTFWSNAMGWYRQAPGKERELVADITFSGGRTYYADSVKGRFTISRDNAKNTVYLQMNSLKPEDTAVYYCAASATPSGVGMDYWGQGTQVTVSS,low polyreactivity
18,QVQLVESGGGLVQAGGSLRLSCAASGRIFIAYAMGWYRKAPAKERELVAAITDDGGTNYADSVKGRFTISRDNAKNTVYLQMKSLKPEDTAVYYCAATYLIGYYYVWEYDYWGQGTQVTVSS,low polyreactivity
19,QVQLVESGGCLVQAGGRLRLSCAASGSTFRSYTMVWYRQAPGKERELVADINGTGGSTYYADSVKGRFTISRDNAKNTVYLHMNSLKPEDTAVYYCAADGYFRTVTSGWALRMGYWGQGTQVTVSS,high polyreactivity
20,QVQLVESGGGLVQAGGSLRLSSAASGSTYFTYAMGWYRQAPGKERELVAAISWSGGTTYYADSVKGRFTISRDNAKNTVYLQMNSLKPEDTAVYYCASARDGILKANDYWGQGTQVTVSS,low polyreactivity
